Experimental findings from the supplement of paper PMC10126150 are described below.

± gives the standard deviation of the averaged measurements.

This data set has as its system ATP. Kind of data set: switch fluorescence ratio, 500 uM ATP over buffer (Cy3 cluster intensity, sum of 5 cycles each) (fold (ratio)); higher = stronger signal-on switching upon ATP binding; sequences stand for … in TCGTCGGCAGCGTCAGATGTGTATAAGAGACAGTTTTTTTTTTTTTTTTTTTTTTTTT…TC. Particulars: aptamer strand: ATP DNA aptamer (quencher-CACCTGGGGGAGTATTGCGGAGGAAGG + anchor), 100 nM annealed; ATP concentration: 500 uM. The method, boiled down: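 Cy3-labelled switching-strand clusters on a modified Illumina MiSeq flow-cell were annealed to 100 nM quencher-labelled ATP aptamer and imaged first in selection buffer, then after 15 min with 500 uM ATP at 22 °C. NaOH stripping and re-annealing separated each of five buffer/ATP cycles, and clusters outside 100-1000 RFU were excluded. The fluorescence ratio sums target-cycle Cy3 intensity over buffer-cycle Cy3 intensity per cluster and averages it per switch-domain sequence.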
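Note: ATP exposure 15 min at 22 °C before imaging.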

Consider GTTATGGGTA, for which the switch fluorescence ratio was determined as 0.989 ± 0.025.
To ATGGGGGCGG belongs 1 ± 0.021; to ACGGGGCCGC, 0.994 ± 0.045; to CATTAGGGGG, 1.04 ± 0.037.
To TTATCGGGGC belongs 1 ± 0.025; to ATGGTGAGTT, 1 ± 0.015.
Consider AGTGGTTCG, for which the switch fluorescence ratio worked out at 1 ± 0.018.
The result for ATTATGGTAA reads 1 ± 0.018; that for TGGTGGTGTC, 0.985 ± 0.05; that for TATAGTGATG, 1.01 ± 0.019.
The result for ACGATGTGTT reads 1.01 ± 0.025.
The result for AATTTGCATG reads 0.978 ± 0.013; that for GGGAAGAAGT, 1.011 ± 0.0084; that for TCAATAAAGT, 0.961 ± 0.014.
On to ATTGAGGAGA, for which the switch fluorescence ratio was 0.999 ± 0.033.
As to GAGTTTAGTC, the switch fluorescence ratio was found to be 1.01 ± 0.013.
The result for GAAATAAGGC reads 1.01 ± 0.013; that for GAACTAGTAT, 1.01 ± 0.013.
To GTTTTTACTA belongs 0.998 ± 0.014; to TGGGGGAAGG, 1.03 ± 0.061; to CGTAATTTTA, 1.01 ± 0.027.
To ATAGGCGCGC belongs 1.04 ± 0.014; to CACACCGGCA, 1.093 ± 0.0043; to GCGGAGGCTG, 0.97393 ± 0.00027.
For AAACGACATT, the switch fluorescence ratio was found to be 1.13 ± 0.13.
To AGGTTTTTGC belongs 1.02 ± 0.02.
To CCCCTTGTTC belongs 1.01 ± 0.02; to CGTTTATAGG, 1.015 ± 0.009.
The result for GGGCGGAGGG reads 0.998 ± 0.027.
Regarding AAACGCCGAA, the switch fluorescence ratio is 0.986 ± 0.062.
The result for ATTTATGTGT reads 1.01 ± 0.057.
The result for TCGGGGAGCG reads 0.949 ± 0.042; that for AGTTAGGGGA, 1.01 ± 0.038.
The result for TGTGGTTATT reads 0.991 ± 0.025; that for CTTATAGGGG, 1 ± 0.035.
Turning to GTGTAGGGGT, the switch fluorescence ratio was found to be 0.9779 ± 0.0083.
As for CAGGCTTGTA, the switch fluorescence ratio came out at 1.004 ± 0.0098.
To ACGTGGCACA belongs 1.053 ± 0.0084; to ATTAAATTAA, 1.034 ± 0.01.
The result for AAAAAGGAAT reads 0.982 ± 0.011; that for AAAAGCTTGC, 1.13 ± 0.11.
To AGCCGAATTT belongs 0.997 ± 0.019; to GGGTTCGTTC, 0.989 ± 0.054.
Consider TGGCTCAGTG, for which the switch fluorescence ratio was 1.024 ± 0.0018.
The result for AGGGGGTCGT reads 0.98 ± 0.017.
The result for AAATAAAGGG reads 0.987 ± 0.032.
To GGTATGTGTG belongs 1.03 ± 0.024; to TGAATGCGCC, 1.01 ± 0.025.
For the sequence TGTTGTTTAC, the switch fluorescence ratio was 1.0216 ± 0.00012.
On to ATGGGTATTT, for which the switch fluorescence ratio stood at 1.02 ± 0.035.
The result for CACTGAGATG reads 1.01 ± 0.03; that for GCTATGTTTG, 0.9757 ± 0.0064.
The result for GTAGGAAATA reads 1.02 ± 0.02; that for CATGGGGAGT, 0.969 ± 0.024.
The result for ATGTGCAGGC reads 0.969 ± 0.026; that for AATATGGCCG, 0.985 ± 0.037; that for CAAGTGTACG, 1.01 ± 0.042.
As to TCATGTTTCG, the switch fluorescence ratio came to 1 ± 0.031.
The result for TCGGTAGGG reads 0.9717 ± 0.003; that for GGGTTGGATT, 0.991 ± 0.023; that for GTGGGTACGG, 1 ± 0.028.
The result for CTGGAACGTC reads 0.989 ± 0.026; that for TGGGGTTGGC, 1.17 ± 0.34.
The result for ACCACGGGAA reads 1.05 ± 0.032.
Turning to TTCTCGAATT, the switch fluorescence ratio worked out at 1.01 ± 0.039.
To AAGCGGTATC belongs 1.03 ± 0.021; to AGGATGGGGA, 0.99 ± 0.023.
On to TGCGTTAAGG, for which the switch fluorescence ratio worked out at 1 ± 0.031.
Regarding AGTCATCACC, the switch fluorescence ratio turned out to be 1.02 ± 0.023.
To GGGGCGTTGG belongs 0.993 ± 0.033.
The result for ATTTAGTTTC reads 0.976 ± 0.026.
The result for GGCACCTGGG reads 1.02 ± 0.016.
Regarding CGATCATAGG, the switch fluorescence ratio came out at 1.01 ± 0.049.
To GGGAGAGGTT belongs 0.987 ± 0.032; to TGAGGGTTTG, 1.02 ± 0.044; to GGCTCAGGCA, 1.04 ± 0.023.
To GGATGTAGCG belongs 0.985 ± 0.051.
The result for GGTTTAGGTG reads 1.14 ± 0.059; that for GATGCAATCT, 1.44 ± 0.08.
On to ATGGGGTTGT, for which the switch fluorescence ratio came to 0.966 ± 0.019.
Consider GATTTCAGTG, for which the switch fluorescence ratio was determined as 0.974 ± 0.023.
The result for TGAAGATTAT reads 0.988 ± 0.012; that for AGTACTTGCC, 1.03 ± 0.016; that for TACACCTTTC, 2.3 ± 0.073.
Take AATTATTGAG: the switch fluorescence ratio is 1.02 ± 0.038.
The result for GTTGAGAGTG reads 1 ± 0.049; that for GCATCTGTAG, 1 ± 0.067.
Regarding ATTTTGTATT, the switch fluorescence ratio is 0.99 ± 0.034.
In the case of AGGGGCATGG, the switch fluorescence ratio amounted to 0.998 ± 0.04.
ACTTAGCAA: the switch fluorescence ratio came out at 1.92 ± 0.092.
For the sequence TAAATTCCGA, the switch fluorescence ratio amounted to 1.07 ± 0.038.
For TTATCTAGGG, the switch fluorescence ratio was 0.997 ± 0.041.
Take TAATAGAGCT: the switch fluorescence ratio turned out to be 0.995 ± 0.03.
To TGTAGGGGGT belongs 1.01 ± 0.041; to GCGGCAGTCT, 1.03 ± 0.012.
To TGCTTTTTTT belongs 0.966 ± 0.024; to ATGAAGACGG, 1.03 ± 0.059.
As to TTAGATGGGG, the switch fluorescence ratio worked out at 1.01 ± 0.11.
The result for TTGGACTAGC reads 0.981 ± 0.033.
The result for GTGGTCCGTG reads 0.962 ± 0.0097.
Regarding CGTTGGGGGA, the switch fluorescence ratio stood at 0.997 ± 0.029.
The result for CTCTTACGTT reads 0.98 ± 0.023; that for GATCACTGTT, 0.996 ± 0.062.
Take AAGAGGGCGT: the switch fluorescence ratio was 1.012 ± 0.0064.
The result for TTTAGAAGTG reads 1.005 ± 0.0094.
For the sequence ATATCTTTTT, the switch fluorescence ratio is 0.983 ± 0.037.
The result for TTTACCGGTT reads 0.974 ± 0.07; that for CGAATTAGTT, 0.978 ± 0.045.
The result for AGGACCGGGG reads 1.024 ± 0.0095.
For CAAAATTGCC, the switch fluorescence ratio came out at 0.954 ± 0.11.
To CGTGGGGGGT belongs 1.01 ± 0.018; to CTGTGCAGTC, 1.26 ± 0.075; to GAGGCGCGGA, 1.01 ± 0.013.
For AGATCTTGCG, the switch fluorescence ratio came out at 0.979 ± 0.019.
To GGTCGAAGGG belongs 0.985 ± 0.051; to TGGTGGGACG, 1.06 ± 0.14; to AATTTGGGGA, 0.968 ± 0.013.
To ATGATTTTAG belongs 1 ± 0.031; to GTGGTAGTGG, 0.949 ± 0.023; to TTTTTGCTCG, 1 ± 0.03.
